Measurements: article PMC6056500, “Novel interactomics approach identifies ABCA1 as direct target of evodiamine, which increases macrophage cholesterol efflux” (Scientific Reports, 2018)

T1: ATP-binding cassette transporter A1 (ABCA1) (Homo sapiens, UniProt O95477)
T1 construct: recombinant ABCA1 peptide (Abcam #ab125995), C-terminal domain 2085–2245aa
T1 sequence (O95477 2085-2245): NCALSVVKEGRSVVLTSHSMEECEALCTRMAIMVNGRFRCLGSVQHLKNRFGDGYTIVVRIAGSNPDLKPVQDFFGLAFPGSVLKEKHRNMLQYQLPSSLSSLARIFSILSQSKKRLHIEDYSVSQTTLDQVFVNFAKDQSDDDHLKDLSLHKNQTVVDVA

T2: recombinant human retinal dehydrogenase-1 (ALDH1A1) (human, UniProt P00352 1-501)
T2 construct: retinal dehydrogenase 1 (aldehyde dehydrogenase 1 family, member A1), human, recombinant; also called ALDHA1; aldehyde dehydrogenase 1 family, member A1
T2 sequence (looked up): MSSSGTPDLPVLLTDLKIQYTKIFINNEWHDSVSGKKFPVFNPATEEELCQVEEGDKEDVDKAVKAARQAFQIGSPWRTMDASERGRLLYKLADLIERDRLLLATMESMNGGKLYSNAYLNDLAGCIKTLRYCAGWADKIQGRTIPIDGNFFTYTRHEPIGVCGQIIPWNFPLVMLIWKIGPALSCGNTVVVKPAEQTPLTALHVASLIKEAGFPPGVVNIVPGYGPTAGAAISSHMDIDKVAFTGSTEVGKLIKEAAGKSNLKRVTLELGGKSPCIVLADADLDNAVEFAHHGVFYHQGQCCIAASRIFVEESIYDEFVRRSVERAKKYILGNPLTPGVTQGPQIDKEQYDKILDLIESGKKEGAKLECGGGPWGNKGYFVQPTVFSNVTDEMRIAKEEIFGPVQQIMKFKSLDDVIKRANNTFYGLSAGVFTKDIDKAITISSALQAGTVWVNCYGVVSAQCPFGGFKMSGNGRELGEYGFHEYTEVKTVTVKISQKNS

B1: recombinant ABCA1 peptide (Abcam #ab125995, covering C-terminal domain 2085-2245aa) (domain or fragment, UniProt O95477 2085-2245, looked up)
chain: T1 sequence (O95477 2085-2245)
notes: check the Abcam data sheet; source: bought: Abcam #ab125995, recombinant

Columns and labels:
[1] = biological target: T1, ATP-binding cassette transporter A1 (ABCA1); assay: SPR (Biacore […], immobilized ABCA1 C-terminal peptide on CM5 chip); also identified by NPOT in THP-1 extract
[2] = biological target: T2, recombinant human retinal …; assay: SPR; Biacore 3000; ABCA1 peptide immobilised on a CM5 chip by amine coupling; proteins dialysed against HBS-E (10 mM Hepes, 150 mM NaCl, 3 mM EDTA); ALDH1A1 injected at 6e-8 to 1e-6 M; 1:1 fit (Langmuir or drifting baseline); conditions: both partners purified

Molecule	Kd [1]	Ka [2]	Kd [2]
CN1c2ccccc2C(=O)N2CCc3c([nH]c4ccccc34)C21 (stereo in doubt) [evodiamine]	0.81 µM	–	–
B1	–	1.25e+06 M⁻¹	0.803 µM
